Results as given in US20040234998A1.

Columns and labels:
Experiment in all cases: cell-based or functional assay
[1] = biological target: 980603 (Röhm): Purified preparation of Frimond's Belase xylanase (identical to Röhm's) (Bacillus subtilis)
[2] = biological target: 980903 (XM1): Purified mutant of Bacillus sub. wild type xylanase expressed in E. coli
[3] = biological target: 980601 (BX): Purified preparation of Danisco's new bacterial xylanase expressed in E. coli (Bacillus subtilis) (UniProt P18429)

endogenous endo-β-1,4-xylanase inhibitor from wheat flour
Inhibation, % (flour 98002) [1]: 60.8% | Inhibation, % (flour 98026) [1]: 61.3% | Rest act., % (Avg) [1]: 39% | Rest act., % (flour 98002) [1]: 39.2% | Rest act., % (flour 98026) [1]: 38.7% | difference in inhibition between XM1 and XM2 [2]: 250% | residual activity of XM1 relative to rest activity of XM2 [2]: 2.5 times | Difference, % (average rest activity of 980601 against 980603) [3]: 25.6% | Inhibation, % (flour 98002) [3]: 67% | Inhibation, % (flour 98026) [3]: 75% | OD 590 (+inhibitor), xylanase activity on Xylazyme [3]: 0.165 OD 590 | Residual activity, % [3]: 24.4% | Rest act., % (Avg) [3]: 29% | Rest act., % (flour 98002) [3]: 33% | Rest act., % (flour 98026) [3]: 25% | Vmax (Lineweaver-Burk plot, relative OD 590, with and without inhibitor) (relative OD 590) [3]: 1.19
